Laboratory results taken from article PMC12263440.
Where “and” joins values, the source holds several entries; their conditions need not be identical. Identical values can stand only once.

Target: nucleosome containing the 193-bp Widom 601 DNA (24-bp linker DNAs at both ends) (human) (UniProt P04908)
Assay: mass photometry; 193-bp 601 nucleosome (1 µM) and DEK (2 µM) in 18 mM Tris-HCl pH 7.5, 60 mM NaCl, overnight at room temperature; diluted 1:40 for recording

recombinant human DEK protein (wild type) (from UniProt P35659 1-375) (natural protein)
stoichiometry N (DEK molecules per nucleosome): 1 and 2
